Laboratory results: patent US20250327057A1, “NOVEL AMINOACYL-TRNA SYNTHETASE VARIANTS FOR GENETIC CODE EXPANSION IN EUKARYOTES” (VERAXA Biotech GmbH, priority 2021, published 2025)
Numbering of substitutions follows the chain as printed. In names and notes the source's numbering stands. Entries after “also recorded” stand apart in the source; their conditions may differ.

Tests used:
[1] = test system: iRFP-EGFP^Y39TAG reporter in HEK293T cells; test: FFC test of importance of Y306A and Y384F for incorporation of bulky ncAAs, Example 3; assay type: cell-based
Protocol: These new PylRS variants as obtained from example 1 were tested in HEK293T cells utilizing a fluorescent reporter by fluorescent flow cytometry (FFC). The reporter contains an infrared fluorescent protein (iRFP) fused to enhanced green fluorescent protein (EGFP) which harbors an amber stop codon at position Y39 and is called iRFP-EGFP^Y39TAG. To analyze the incorporation efficiency for each new PylRS variant, transient transfection with different ncAAs and different amounts of ncAAs were performed.
The iRFP and EGFP signals were measured after 24 hours post transfection. Therefore, HEK293T cells were seeded in 24-well plate 16 hours prior to transfection. For the two-plasmid transfection, 1 μg of total DNA was used per well. The DNA was mixed with 50 μl of DMEM medium without Phenol Red and 3 μl of PEI were added. After 10 seconds of vortexing and a short centrifugation step, the DNA mixture was incubated 15 minutes in the hood, before it was added dropwise to the well. A master mix was prepared for all wells whenever suitable. After four hours of incubation, the medium was aspirated and fresh medium with different concentrations of ncAAs was added. The concentration of ncAA was 250 μM. After 20 hours of incubation, the iRFP and EGFP signal was analyzed with a flow cytometer analyzer (LSRFortessa™, BD Biosciences). Stock solutions for all ncAAs were prepared as described previously (Nikic, I., Kang, J. H., Girona, G. E., Aramburu, I. V. & Lemke, E. A. Labeling proteins on live mammalian cells using click chemistry. Nat. Protoc. 10, 780-791 (2015)).
To test, if the mutations Y306A and Y384F are really important for the incorporation of bulky ncAAs, these amino acids were changed back to their original amino acid residues by site directed mutagenesis in the case of the PylRS AF A1 variant.
The FFC test was with TCO*A, TCO-E and in addition with Boc using the variants PylRS A1, PylRS AF, PylRS AF A1 and PylRS MMA. PylRS MMA has the mutations 306M 309M 348A. FIG. 3 illustrates the data obtained by FFC in bar plots for the different ncAAs used. […] These bar plot illustrates on how much higher the incorporation efficiency is for each variant compared to PylRS AF.

[2] = test system: iRFP-EGFP^Y39TAG reporter in HEK293T cells; test: Incorporation assay for cyclooctyne-lysine (SCO) by FFC, Example 4; assay type: cell-based; conditions: ncAA SCO, 15.625 μM to 500 μM, FIG. 5
Protocol: To test the incorporation efficiency of another ncAA by the new variant PylRS A1, an incorporation assay was performed utilizing HEK293T cells. The cells were co-transfected with a plasmid containing NES-PylRS A1 containing as well the corresponding tRNA^Pyl gene together with the reporter plasmid pCI-iRFP-EGFP^Y39TAG-6His (SEQ ID NO: 97). Different concentrations of SCO were added to the growth medium 4 hours after the transfection of the cells ranging from 15.625 μM to 500 μM SCO. After 20 hours of incubation, the iRFP and EGFP signal was analyzed with a flow cytometer analyzer (LSRFortessa™, BD Biosciences) as mentioned above.

B1: PylRS A1: M. mazei PylRS mutant L309M, C348G, I405R without Y306A/Y384F (SEQ ID NO: 70) (protein)
chain: MDKKPLNTLISATGLWMSRTGTIHKIKHHEVSRSKIYIEMACGDHLVVNNSRSSRTARALRHHKYRKTCKRCRVSDEDLNKFLTKANEDQTSVKVKVVSAPTRTKKAMPKSVARAPKPLENTEAAQAQPSGSKFSPAIPVSTQESVSVPASVSTSISSISTGATASALVKGNTNPITSMSAPVQASAPALTKSQTDRLEVLLNPKDEISLNSGKPFRELESELLSRRKKDLQQIYAEERENYLGKLEREITRFFVDRGFLEIKSPILIPLEYIERMGIDNDTELSKQIFRVDKNFCLRPMLAPNLYNYMRKLDRALPDPIKIFEIGPCYRKESDGKEHLEEFTMLNFGQMGSGCTRENLESIITDFLNHLGIDFKIVGDSCMVYGDTLDVMHGDLELSSAVVGPRPLDREWGIDKPWIGAGFGLERLLKVKHDFKNIKRAARSESYYNGISTNL
In the case of B1, the “ability to incorporate bulky ncAAs” value ([1]; TCO*A, TCO-E, Boc, HEK293T) is reported as “better synthetase for bulky ncAAs; also recorded: able to incorporate bulky ncAAs”, the “incorporation efficiency relative to PylRS AF” value ([1]; ncAA Boc) is reported as “up to 4.5 ×” and the “incorporation efficiency (mean GFP/mean iRFP), ranking among variants” value ([1]; ncAA Boc, FIG. 3C) is reported as “highest incorporation efficiency”. For the same molecule, the “incorporation efficiency (mean GFP/mean iRFP), ranking among variants” value ([1]; ncAA TCO*A, FIG. 3B) was “best incorporation”, the “incorporation efficiency relative to PylRS AF” value ([1]; ncAA TCO*A, independent of the ncAA concentration used) was 1.2 × and the “incorporation efficiency (mean GFP/mean iRFP), ranking among variants” value ([1]; ncAA TCO-E, FIG. 3A) was “highest incorporation efficiency”. The “incorporation efficiency relative to PylRS AF” value ([1]; ncAA TCO-E, depending on the concentration used) was “up to 30 times” and the “incorporation of SCO (EGFP signal by FFC)” value [2] was “can incorporate SCO efficiently”.

B2: PylRS MMA: M. mazei PylRS mutant Y306M, L309M, C348A (SEQ ID NO: 72) (protein)
chain: B1 chain with Y306M, G348A, R405I
In the case of B2, the “incorporation efficiency relative to PylRS AF” value ([1]; ncAA TCO-E) is reported as “up to 10 ×”.

B3: PylRS AF A1: PylRS AF variant with 309M, 348G, 405R (SEQ ID NO: 108) (protein)
chain: B1 chain with Y306A, Y384F
With B3 the “incorporation efficiency (mean GFP/mean iRFP), ranking among variants” value ([1]; ncAA TCO-E, FIG. 3A) was “highest incorporation efficiency”.
